From the DeepSol protein solubility set

Experiment: soluble on expression in E. coli; label from the status in PepcDB or PDB records

| Sequence | soluble on expression in E. coli |
| --- | --- |
| MSLENNKAKMNEKEEIIFNSIRKNPYISQQELADILDLSRPTVANLISGLIKKGRILGKAYILNEAKQIVCIGGANVDRKFYIKDKAQLATSNPVRSTQSAGGVARNVGENLGRLGKEVILLTACGTDSDWEAVKNASNTYMNLDYVTAFPSIATGSYTAVLENNGDLLVALADMDAYDHLTPDVLAKNEGLLSQASAIIADLNCPKETLEYLGSFAEINSIPLVLVPVSSPKMSHLPERLDHVTWLICNRDESETHLEMTIENDEDWRLAAQKWLDLGVKNVIVTNGSKGAVAANNAEGIIFEPAIVIENIVDVTGAGDAFCSAVIYAWLEGKSLQEILKAGSVNAARTLESEYTVRQNLSTSQLQKDLEEFKEGHHHHHH | soluble |
| MWGKKDAGTELTNYQTLATNTIGMMKGVDGYAFTSGAKMTDTLIQAGAAKGMTVSGDPASGSATLWNSWGGQIVVAPDTAGGTGFNNGFTITTNKVPQSACVSISTGMSRSGGTSGIKINGNNHTDAKVTAEIASSECTADNGRTGTNTLVFNYNG | soluble |
| MKANQLDILIVPGYKGSDPDHWQTRWEKKLSTARRVQQTHWSKPICEEWVNEVKIAIAQSQKPIVIIAHSLGVPTTIHATLKNAEKVRGAFFVAPPDVSNEKIRPKHLMTFGPYHCKKLSFPSVVIASRNDEFCQFSVAEKLAGDWGALFVDAGLSGHINVESGHGPWPEGLMVFSHFLAKI | not soluble |
| MGSDKIHHHHHHMAFYPVHKELQNISQSMPQGNFGLWYNKFIPLSDDAFKPSDDKGSNGKGDENRPVDYYFGQYSKLRLNAAETAAILKQKHEDMDDFCANFPPQKYEEIAICATLDSPLITGIGESHPHEVSMVFDHNMGIPYIPASGVKGIVRFAHTISLIPEAMNKAEVIDNVRFDDEADWTSVPHMFGTQKNRGNVIFLDAYPEDIPALHMDIMNPHYSPYYSEGKPPADHHNPTPIKFLTVAKGTKFIFRAVAKKEQNLPQKIRVAFAEALTKEGVGAKIALGYGRFVIDEDGQKVLLKKRKQRHEEKKRRLSPWLDYIELINQVGDWGQFKQIVLDNEKLVEYRKEMDVTEAVRIKALEIRNKWRKSWGASRDEQIATWLQPAGVEWPCIVAGIENPVKEKSADYEKIMQLIDWGAYKSAGIDLSKLPLDALQLLKQKMEEWGCYSKKAKEDKKTAFKKVKDLLRQHQK | not soluble |
| MDGIRVYIETFGCTFNQADSEIMAGVLREEGAVLTGIDDADVIIINTCYVKHPTEHKVINRIKKIQETYPEKGLVVAGCMVEIDPSKLEAISGDASWLGPHQLRRAPQAVRAASNGLVERITGFTSDVKVKVPRVRSNPLIHIIPICEGCNGSCSYCCTRFARGRIQSYPSDLIISEAREAVASGCREIQLTAQDTAAYGVDTGEKLSDIIKGISGIPGNFRIRVGMMHPASVLRDLDGLVEAFKSEKVYSFLHLPVQSGSDSVLADMERGHTVDEFRMIVERFRSEIPDISIATDIIVGYPTEEREDFMDTCSLLEEVKPSFIHLSKYRHRPRARSSSLDEIDFRELRRRSRALEELKMRITEEENRRLVGSFQEILVVERGRKGGFIGRTGSYIPVVTETGEPGSFRRVRIRDATGTYLLADLEHHHHHH | soluble |
| MIEKKIHYVWFGNAKSEKVLKCIESWKKNLPDYEIIEWNEKNFNIEEELKSNKFFRECYNRKLWAFVSDYVRVKVLYNYGGIYLDTDMEIIKDITPLLDADMFLGYENEDTMSFGIVGVIPKHKVFKKMYEFYQNEIWKSPLHIVTSILTEILEKEYHGKYRENNINIYPREYFYPFNHDEEFTKDCITGNTYAIHWWGKSWKKNPKVYFLKYKHLPWWKKYPKHVAKLINYYFKNLFNFRKELEHHHHHH | soluble |
| MTLKTSVLALLLDNVHVLLIANPESTTQTQKLFRRVVPALMALDGVSLEARFTHYGGHAEEMVAGLTVDDFDVIIPAGGDGTVNEVINGLLGSAEGDFRNLEDLPAIAVLPTGSANVFARALGYPTDPYAAADALVELIRKNHTRTITLGTWKGDDQGTRWFAVNAGFGIDADVIARVERARSFGFAASPLLYLQVSLRAWVKTQIKPPKITVEAVDSKGHKLQKEEVPMLLASNTNPWTFLGPLPVVTNPQNSFDTGLGLFGLTSVRGFGGVAAMMHLIGVGHGRKLEKLIAKRTIAFDDAEKVTLTCDSDQRFQVDGEYEGKPTKVVLESITDAVRVYAPKTHPTPPIMNWAVHLFKHVRDFLRVRTFGI | not soluble |
| LTRFSAGYGSDSMLEASADIGRRFGPDDSVGIRINAAQRGGETAIDGERTRTTVFALGLDWRGERARLSADIGYQDNRLKRARPNVTLAGDAAKVPGAPDAGSNYAQPWSYSNERDVFGTLRGEYDFNDRITGWAAYGMRQSKEENSLANLNGVNGAGQGKFYRFDNAREDTVNTGEIGLRAKARTGPVGHELVASASYFDLEKKNAYVMDFFNQFDTSIYDPVSYAKPAISSTAFRGNDMDDPAKQGVIRLASYALGDTMSFFDDKVLLTAGIRHQRLYQRDYSYDTGIGGTPYEQSHNSPAAGLVVRVTPQVSLYANYIEALSAGDTAPQTANGLPVVNHGESLAPYVSKQKEVGVKFEHDGLGGGLALFSTDKPRGFVGDDQVFRASGKDRHRGVELTTYGELTRSVRVLGGLTWLDAKQLSTGNAATDGKRVIGVPRFQANLGVEWDIPGVQGLTVDGRVVYTGSSYADAANTLEVPGWTRLDAGLRYMTDIGGHLVTWRARVENIANRDYWSSVGGYPGNGYLVLGGPRTFTLSASMEF | not soluble |
| MYEVTKFGGEGKRLEDYREIIGDEALEAIKAKAENLKDKSFVHVNSTSFGGGVAEILHNLVPLMRDVGIDARWFVIEGTNEFFNVTKSFHNALQGNKELRLTEEMKKLYLEINKKNAEDIDLTQFDYVLIHDPQPAPLIEFYEKRQPWIWRCHIDLSDPNLEFWKFLRQFVEKYDRYIFHMEEYVQEDLNQEKVVIMPPSIDPLSEKNMELEHHHHHH | not soluble |
| MEQLNKMAPKDVRALIREGKINGPTAGMSGGYAQANLVVLKKDLAFDFLLFCQRNQKPCPVLDVTEAGSPVPSLLRRMLISRTDFPKYRIYRHGILTEEVSDITPYWEDDFVGFLIGCSFSFEQALINNGIAVRHIDEGTNVSMYKTNIDCFPVGAFHGQMVVSMRPVPERLAVRAAQVTSRFPAVHGGPIHIGNPGAIGIRDLGKPDFGDAVSIRDGEVPVFWACGVTPQAVAMNVKPEMVITHAPGHMLITDIRDESLAVLLEHHHHHH | soluble |
| MGSDKIHHHHHHMRLVNIAYVGEGEVLARPLVSPNGKVLLQAGVKLTRNYIDKLSRLGFDTMFIEDDTFQDVEIYSAVSIKTREAAYASLENLSKNLNEAQPHTVNLGEVKKAVQNIIADLLYSKDMLGNVMEIQGYDDYTFHHSVNTTIIALIMGISMGWHNGKLLELGMGVLMHDVGKIKIPSEILNKRGPLTPEEFAEIKKHAEYGFEILRKNHDINLLSAHIALQHQERWDGSGYPRGLKGNQIHEYGRLAAVADVYEALTSKRVYRNALQPYEAYEYVIANSDTLFEPKVVQNTFSKCITPYPTGTGVRLTNGLRGNVVKQNFTFPTRPYVRMTHEGEIRLIAPIDYNLAEHPSLMIVGIENK | not soluble |
| MGSDKIHHHHHHSCKQAPDAGVKSSYAVMQIEPTDKELSSSYSATIRGRQDIDIYPQVSGTIEKLCVTEGQKVRRGQLLFIIDQVPYRAALKTATANVEAARAATSTAELTYKSNKELYAQKVVSEFSLKTAENSYLTAKAQLAQAEAQEISARNNLSYTEVKSPSDGVVGALPYRAGALVSANIPYPLTTVSDNSDMYVYFSMTENQLLALTRQYGDMDEALKNMPEVELILNDNSVYQKKGTIESISGVIDRQTGTVVARVVFPNESRLLHSGASGTVVVPSIYKNCIAIPQTATVRMQDKTIVYKVVDGKAVSTLITVAGINDGREYVVLDGLKAGDEIVSEGAGLVREGTQVK | not soluble |
| MGSDKIHHHHHHMKKQFEMYFSLGTLIGYMHDNKLIATGGVFPFKDSFSTIGMLIVHPNFQGQGIGRTLLNHCLAHTHPKQPIALIATKAGEPLYTSCGFQTVTTIHRFEKQTTKTHITHTQQVKEKDIISLISLDQSTTGADRSLLYSLLLPRTSHSFKIERHNCIEAFSLCIQKGNILCINPLIAKREEDAIQLLQKICECWNGTVRLDVPHSQFSFRKLLQTENFQETLLSPLMIKNGSQLPGNRNMLFAMIDTALC | not soluble |
| MAHHHHHHMECGYSNEGKFHQVVLTIKEKIEKHDLSKWKDIVKPEEGPKYDEYFERLLREGNQEKDKNGKDTEGKDTHEKNTHDEGVHGKDDLSAEQVEKTPSHEYQQTEDEENPKKFQLNKEFFDKINNKEKFYFLLNIKEMMETSWLLAQKRLEGIKVEEKSKSVNVQDLLNYSQKIADTTCAPPECDNINDRIMHQEYYPNYHFLNFVNVEEIHLSKLFQLQKYSTVCFPPIITIQEGKDNMLVLHISCSTPHATIYYKVNDETNEQIYNTDEKPKIRKRKKINVYAWSVKNGHIKSRISCISKSYKVEEDDSFSLSDNFPNKDQGEQPSGFSKTGTECNAPGSKPSQITNVFKNLGFLLSRKKEKTEESSSNGDSSSEA | not soluble |
| MGVEKTIVGIAGKIAAGKTTVAKFLEELGFCRISCSEPLLDILTGNVSEYSWVPEVNFKGEPTRENLIELGRLLKEKYGEDILIRLAIDKLRRCKNIAIDGVRSLGEVEAIKRMGGIIIYIEARAEVRFERLRKRCSEKDRGIKTLQDLLRFDEWEERLYSTTNIKEKADFVILNEGSLEELKKKVREILREHSN | not soluble |
| MIDETAEEIREMRTHSSSVVAVKAARALEALLDSDYPTVAAYVRALERNSTALRRANPSHASLVTTQREVVSRVRDADPASIPEAQEVTAAAIDDVVARVNMGKHDAAAATAEHITDGQTLLTHDYSSTVLEAIELAAQDGAHLDVFVTEARPRHLGRKTVRALAQLDRVDPTLIVDGAAGHVLDDCDRVLLGMDCIVADTYYNRVGTYPIVAAAADAGTPVTVAGSAAKLVADGFQFTNDFRDTSEVIREPPAGFTVENPAYDATPTRLLDAVVTEDGRRTEFPLESLEHHHHHH | not soluble |
| MGSDKIHHHHHHMTFEKNEHKDIAVIGAGPVGMLAALNLAHKGYSVCLIGPPVDTDELRTTALMMPAIHMLQKLNIWNIVKSHAAALSFIRIIDITSRIIRAPTVNFSSAEIGEEAFGYNIPNVELNNALVASVAHTPNIKRFFSSAHFFHHQPNHIHVTLADGGVVQASLIVAADGRDSRTREAADISVKKWNYPQTALVLNFSHDLSHQNTSTEFHTESGPFTQVPLPGHRSSLVWVVNPSRAEELLRLESKVIAKVIEEQMQSMLGKLTLETPIQAWPLSGLISQRFAANRTILVGEAAHVFPPIGAQGLNLGFRDIQTLIDILPNKISDFNSKKIVAHYNKCRKPDILIRSGSVHMFNSALLSNMLPVHIIRSFGLGLLRNCSPLRNLFTREGIYPGYGFKKIMQTFPIKSHKQESSIFFSVLVKDRDSEMISKSSLF | not soluble |
| MGSDKIHHHHHHMQSIPHVDMRRYQNDFDAFTQDVGNGYEKYGFIALTQHGVDTALIERALDTCRELFALPEDVKKQYHRPGQGGARGYTPFGTEVAKDAKHVDLKEFWHVGREVEGEPAYPQLLPNVWPQELPKFKDDMLAIYAALDNLGNQVLEALSVYLGQPKDFFRNKVNNGNSILRPLHYPPIIDEDTPSVRAGAHEDINVLTLLVGSREPGLEVLAKDGTWVPVTIIEGAIICNVGDMLQRLTNHVLPSTTHRVVNPPAPFNEKSRYSIPFFLHFNPDVMITPLESCISDENPQRDEPITADDYLMQRLREIGLIKD | not soluble |
